# Data from patent US20130202608A1.
# B1: murine monoclonal antibody 4C2 (antibody, V domains shown)
# VH: QESGAELVRPGASVKLSCKDSGYTFTTYWMNWVKQRPEQGLEWIGRIDPYDSETHYNQKFKDKAILTVDKSSNTAYMQLSSLTSEDSAVYYCVRGGSTVAYFGVWGQG
# VL: MTQSPSSMSVSLGDTVSITCHASQDISGHIGWLQQKPGKSFKGLIYHGTNLEDGVPSRFSGSGSGADFSLTISSLESEDFADYYCVQYVQFPWTFGGGTK
# How the values were obtained:
# Experiment in all cases: cell-based or functional assay
# [1] = target: hemagglutinin of A/Common iora/Indonesia/F89/H7N1 (influenza A virus A/Common iora/Indonesia/F89 (H7N1))
# [2] = target: hemagglutinin of A/Indonesia/TLL013/2006 (H5N1, clade 2.1) (influenza A virus A/Indonesia/TLL013/2006 (H5N1))
# [3] = target: hemagglutinin of A/chicken/Singapore/Sg02 H3N2 (influenza A virus A/chicken/Singapore/Sg02 (H3N2))
# [4] = target: hemagglutinin of A/Indonesia/TLL014/2006 (H5N1, clade 2.1) (influenza A virus A/Indonesia/TLL014/2006 (H5N1))
# [5] = target: hemagglutinin of A/Indonesia/CDC669/2006 (H5N1, clade 2.1) (influenza A virus A/Indonesia/CDC669/2006 (H5N1))
binder,measurement,setting,value
B1,HI titer (titer (mAb at 1 mg/ml)),[1],< 4
same,Microneutralization titers against H5N1 strains,[1],< 10
same,HI titer (titer (mAb at 1 mg/ml)),[2],512
same,Microneutralization titers against H5N1 strains,[2],640
same,HI titer (titer (mAb at 1 mg/ml)),[3],< 4
same,Microneutralization titers against H5N1 strains,[3],< 10
same,HI titer (titer (mAb at 1 mg/ml)),[4],512
same,Microneutralization titers against H5N1 strains,[4],320
same,HI titer (titer (mAb at 1 mg/ml)),[5],512
same,Microneutralization titers against H5N1 strains,[5],320
